Patent publication US5585345

Tests used:
[1] = biological target: human glycoprotein hormone alpha subunit (human) (UniProt P01215); assay: co-expression with alpha subunit in CHO cells, 35S-cysteine pulse-chase, immunoprecipitation, SDS-PAGE
[2] = biological target: human glycoprotein hormone alpha subunit (human) (UniProt P01215); assay: co-expression with alpha subunit in CHO cells, pulse-chase, immunoprecipitation; recovery of diglycosylated form, estimated
[3] = biological target: human glycoprotein hormone alpha subunit (human) (UniProt P01215); assay: co-expression with alpha subunit in CHO cells, pulse-chase, immunoprecipitation; monoglycosylated form recovered in the medium

Row | Substance | Dimer Recovery (%) [1] [%] | Dimer Recovery (%) [2] [%] | Dimer Recovery (%) [3] [%]
1 | LHarg^8 | 32 |  | 
2 | LHarg^8 arg^10 (1-114) | 95 |  | 
3 | LHasn^58 (1-114) | > 95 |  | 
4 | LHthr^42 (1-114) | 84 |  | 
5 | human chorionic gonadotropin beta subunit | > 95 |  | 
6 | human luteinizing hormone beta subunit | 42 |  | 

Other lines, results leading:

Row | Dimer Recovery (%) [1] [%] | Dimer Recovery (%) [2] [%] | Dimer Recovery (%) [3] [%] | Substance
7 | 90 |  |  | CG(1-114)
8 | 80 |  |  | LH(1-114)
9 | 91 |  |  | LHarg^8 (1-114)
10 | 30 |  |  | LHthr^15
11 |  | > 95 | 40 | LHthr^15 (1-114)
